Experimental data published in patent US20030207791A1, “Materials and methods relating to the treatment of leukaemias” (priority 2000, published 2003).

Legend:
GST-NCoR = target: T1, GST-NCoR (Mus musculus, UniProt Q60974); experiment: GST-NCoR pull-down assay with in vitro translated 35S labelled proteins; assay type: binding
T1 construct: made in house
T1 sequence (Q60974 1782-2453): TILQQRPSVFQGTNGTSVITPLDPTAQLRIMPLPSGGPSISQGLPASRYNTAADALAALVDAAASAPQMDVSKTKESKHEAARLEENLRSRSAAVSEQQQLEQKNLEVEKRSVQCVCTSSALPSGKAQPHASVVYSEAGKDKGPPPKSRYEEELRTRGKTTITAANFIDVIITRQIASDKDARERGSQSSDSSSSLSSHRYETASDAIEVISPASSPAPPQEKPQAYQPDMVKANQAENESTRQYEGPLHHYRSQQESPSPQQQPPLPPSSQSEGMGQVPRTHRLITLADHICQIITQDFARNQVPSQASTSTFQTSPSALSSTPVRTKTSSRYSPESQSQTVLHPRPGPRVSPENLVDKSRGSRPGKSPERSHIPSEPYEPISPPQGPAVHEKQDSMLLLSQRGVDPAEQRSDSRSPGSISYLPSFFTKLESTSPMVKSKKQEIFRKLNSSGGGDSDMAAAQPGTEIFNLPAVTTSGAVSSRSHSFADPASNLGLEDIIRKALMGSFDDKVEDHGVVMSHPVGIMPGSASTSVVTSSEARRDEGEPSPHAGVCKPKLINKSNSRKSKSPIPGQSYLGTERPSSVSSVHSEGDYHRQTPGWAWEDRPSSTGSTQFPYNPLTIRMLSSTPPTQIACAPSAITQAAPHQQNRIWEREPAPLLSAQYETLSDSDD
Procedure: FIG. 1. Enhanced recruitment of NCoR by PML-RAR is due to the coiled coil region of PML. Increasing amounts of GST -NCoR (from 150 ng to 10 μg) coupled to agarose beads were incubated with the indicated in vitro translated, ^35-S labelled proteins. On the left, a schematic representation of the in vitro translated products, with the tripartite motif of PML highlighted (R, RING finger; B, B boxes; CC, coiled coil). The input lanes are loaded with the same amounts used in the pull-down experiments.
Recruitment of the NCoR-HDAC complex is crucial for the transforming potential of PML-RAR. At low concentrations of RA (1-100 nM), the stability of the PML-RAR-NCoR complex is higher than that of the RAR-NCoR complex (Grignani et al., 1998; He et al., 1998; Lin et al., 1998). […] Pull-down assays were performed by incubation of in vitro translated, ^35S labelled PML-RAR or RAR with GST-NCoR coupled to agarose beads.
GST-NCoR (1782-2453) or GST-NCoR (RDIII) purification and in vitro interaction experiments were performed as described, incubating the indicated amounts of GST-NCoR attached to a constant amount of glutathione-agarose beads in the presence of the appropriate ^35-S labelled, in vitro translated proteins(Gelmetti et al., 1998; Grignani et al., 1998; Zamir et al., 1996). The input lanes represent 100% of the total. Coimmunoprecipitation experiments were performed as described(Gelmetti et al., 1998), using extracts from transiently transfected COS-1 cells, or in vitro translated products.

[1] = test system: RARE-G5-TATA reporter (GAL4-VP16 driven transcription); experiment: Transcriptional repression of GAL4-VP16 activation, RARE-G5-TATA reporter, transfected HeLa cells; assay type: cell-based
Procedure: FIG. 2. Role of the coiled coil of PML in the altered transcriptional properties of PML-RAR (A): Transcriptional repression by RAR and fusion proteins. Hela cells were co-transfected with the RARE-G5-TATA reporter in the absence (C) or presence of increasing amounts (50, 100, 250, 1000 ng) of the indicated expression vectors and then harvested 48 hours after transfection. Levels of expression of RAR and fusion proteins after transfection are shown in (C). (B) RARE and NCoR dependent transcriptional repression by RAR and fusion proteins. Hela cells were co-transfected with the RARE-G5-TATA or the G5-TATA, reporters and 1 μg of control expression vector (C), RAR (R), PML-RAR (P/R) and their respective AHT derivatives, as indicated. (D) RA sensitivity of RAR and fusion proteins. Cells were co-transfected with 500 ng of the indicated expression vectors. 24 hours after transfection, RA was added at the following concentrations: 1, 10, 100 nM, 1, 10 μM, and cells were harvested after additional 24 hours.
To test this hypothesis, the inventors devised an artificial, reporter system to measure transcriptional repression by RAR and chimeric proteins. The RARE-G5-TATA reporter construct has five GAL4 response elements fused to a minimal promoter region: upstream of the GAL4 sites, a RA responsive element (RARE) allows binding of RAR (or fusion proteins). […] RAR over-expression led to decrease of GAL4-VP16 activation, with 30-40% repression observed with the maximal amount of co-transfected RAR expression vector (1 μg, FIG. 2A), while it exerted no effect on the GAL4-VP16-mediated activation of a cognate promoter lacking the RARE (FIG. 2B). A RAR construct carrying the AHT mutation, which abrogates NCoR binding (Horlein et al., 1995), was unable to prevent activation of the RARE-G5-TATA promoter by GAL4-VP16 (FIG. 2B).
Next, the inventors tested the transcriptional regulatory functions of PML-RAR (or derivatives). […] At the maximal concentration tested (1 μg), the inventors observed 80-90% repression with PML-RAR and 30-40% with RAR (FIG. 2A).
Transient transfection of HeLa, NIH 3T3, SAOS and C33A cells was performed by calcium phosphate as described (Lillie and Green, 1989; Minucci et al., 1994). p53-/- MEFs were transiently transfected by lipofection as described (Pearson et al., 2000). Light units were normalized to expression of a co-transfected β-galactosidase expression plasmid. Results are presented as the mean+standard deviations of at least three independent experiments.

[2] = test system: U937 cells expressing PML-RAR under the control of an inducible promoter; experiment: Differentiation (CD14) of U937 cells with inducible PML-RAR treated with vitamin D and TGFβ; assay type: cell-based; settings: for differentiated, CD14+ cells: cells expressing the coiled coil of PML, vitamin D and TGFβ
Description: The cells were either uninduced (ctr column), or induced to express PML-RAR (PML-RAR column). Cells were transduced with retroviral vectors encoding the coiled coil of PML (RBCC) and GFP as a marker, or with retroviral vectors encoding GFP alone as a control (control). […] In cells expressing the coiled coil of PML (gated in the cytofluorimetric analysis based on the positivity for the GFP marker), PML-RAR was unable to block efficiently differentiation (from 90% to 70%). Levels of expression of PML-RAR were unchanged by expressing the coiled coil region of PML.
RAR oligomerization through the coiled coil region of PML is required for its leukemogenic activity, and deletion of the PML coiled coil is sufficient to lead to loss of oncogenic potential (Minucci et al., 2000). Small molecule compounds able to disrupt PML-RAR oligomers would therefore be able to revert the leukemic phenotype.

B1: RAR: retinoic acid receptor α, wild type (protein)
chain: MASNSSSCPTPGGGHLNGYPVPPYAFFFPPMLGGLSPPGALTTLQHQLPVSGYSTPSPATIETQSSSSEEIVPSPPSPPPLPRIYKPCFVCQDKSSGYHYGVSACEGCKGFFRRSIQKNMVYTCHRDKNCIINKVTRNRCQYCRLQKCFEVGMSKESVRNDRNKKKKEVPKPECSESYTLTPEVGELIEKVRKAHQETFPALCQLGKYTTNNSSEQRVSLDIDLWDKFSELSTKCIIKTVEFAKQLPGFTTLTIADQITLLKAACLDILILRICTRYTPEQDTMTFSDGLTLNRTQMHNAGFGPLTDLVFAFANQLLPLEMDDAETGLLSAICLICGDRQDLEQPDRVDMLQEPLLEALKVYVRKRRPSRPHMFPKMLMKITDLRSISAKGAERVITLKMEIPGSMPPLIQEMLENSEGLDTLSGQPGGGGRDGGGLAPPPGSCSPSLSPSSNRSSPATHSP
Question: How did the “higher amounts of GST-NCoR required to obtain significant binding, compared with PML-RAR” value (GST-NCoR; GST-NCoR 150 ng to 10 μg) turn out when B1 was run?
Answer: The value was 15-30 fold.

Question: What about the “amount of expression vector necessary to measure significant transcriptional repression” value [1] of the same molecule?
Answer: Its value is “at least 250 ng”.

Question: What about the “repression of GAL4-VP16 activation” value ([1]; maximal amount of expression vector, 1 μg) of the same molecule?
Answer: Its value is 30-40%.

B2: coiled coil of PML: coiled coil of PML including the additional amino-terminal region, expressed from retroviral vector (protein)
chain: MEPAPARSPRPQQDPARPQEPTMPPPETPSEGRQPSPSPSPTERAPASEEEFQFLRCQQCQAEAKCPKLLPCLHTLCSGCLEASGMQCPICQAPWPLGADTPALDNVFFESLQRRLSVYRQIVDAQAVCTRCKESADFWCFECEQLLCAKCFEAHQWFLKHEARPLAELRNQSVREFLDGTRKTNNIFCSNPNHRTPTLTSIYCRGCSKPLCCSCALLDSSHSELKCDISAEIQQRQEELDAMTQALQEQDSAFGAVHAQMHAAVGQLGRARAETEELIRERVRQVVAHVRAQERELLEAVDARYQRDYEEMASRLGRLDAVLQRIRTGSALVQRMKCYASDQEVLDMHGFLRQALCRLR
Question: Which results are given for B2?
Answer: differentiated, CD14+ cells ([2]; PML-RAR induced): 70%; toxicity ([2]; uninduced cells): did not notice appreciable toxicity; differentiated, CD14+ cells ([2]; uninduced): 90%

B3: CC-RAR: fusion of the coiled coil region of PML to RAR (protein)
chain: SELKCDISAEIQQRQEELDAMTQALQALQEQDSAEGAVHAQMHAAVGQLGRARAETEELIRERVRQVVAHVRAQERELLEAVDARYQRDYEEMASRLGRLDAVLQRIRTGSALVQRMKCYASDQEVLDMHGFLRQALCRLRMASNSSSCPTPGGGHLNGYPVPPYAFFFPPMLGGLSPPGALTTLQHQLPVSGYSTPSPATIETQSSSSEEIVPSPPSPPPLPRIYKPCFVCQDKSSGYHYGVSACEGCKGFFRRSIQKNMVYTCHRDKNCIINKVTRNRCQYCRLQKCFEVGMSKESVRNDRNKKKKEVPKPECSESYTLTPEVGELIEKVRKAHQETFPALCQLGKYTTNNSSEQRVSLDIDLWDKFSELSTKCIIKTVEFAKQLPGFTTLTIADQITLLKAACLDILILRICTRYTPEQDTMTFSDGLTLNRTQMHNAGFGPLTDLVFAFANQLLPLEMDDAETGLLSAICLICGDRQDLEQPDRVDMLQEPLLEALKVYVRKRRPSRPHMFPKMLMKITDLRSISAKGAERVITLKMEIPGSMPPLIQEMLENSEGLDTLSGQPGGGGRDGGGLAPPPGSCSPSLSPSSNRSSPATHSP
Question: How did the “binding to GST-NCoR” value (GST-NCoR; increasing amounts of GST-NCoR) turn out when B3 was run?
Answer: Its value is “same characteristics of binding as PML-RAR”.

Question: What about the “capacity to repress GAL4-VP16 driven transcription” value [1] of the same molecule?
Answer: Its value is “as strongly as PML-RAR”.
